Assay [1] concerns the target Gi/Go (endogenous G proteins of the CHO cells). As to the kind of experiment: cell-based or functional assay.
Assay [2] concerns the target Gi (endogenous G protein of the CHO cells). Description: cell-based or functional assay.

Four molecules from patent US20060073508A1 can be followed below.

B1: Del322-325 human alpha-2C adrenergic receptor, P18825 1-462 (receptor)
chain: MASPALAAALAVAAAAGPNASGAGERGSGGVANASGASWGPPRGQYSAGAVAGLAAVVGFLIVFTVVGNVLVVIAVLTSRALRAPQNLFLVSLASADILVATLVMPFSLANELMAYWYFGQVWCGVYLALDVLFCTSSIVHLCAISLDRYWSVTQAVEYNLKRTPRRVKATIVAVWLISAVISFPPLVSLYRQPDGAAYPQCGLNDETWYILSSCIGSFFAPCLIMGLVYARIYRVAKRRTRTLSEKRAPVGPDGASPTTENGLGAAAGAGENGHCAPPPADVEPDESSAAAERRRRRGALRRGGRRRAGAEGGAGGADGQGAAESGALTASRSPGPGGRLSRASSRSVEFFLSRRRRARSSVCRRKVAQAREKRFTFVLAVVMGVFVLCWFPFFFIYSLYGICREACQVPGPLFKFFFWIGYCNSSLNPVIYTVFNQDFRPSFKHILFRRRRRGFRQ
In assay [1], B1 gave a high affinity dissociation constant KH of epinephrine (competition with [3H]yohimbine, no GTP) of 7.3 nM and a percentage of receptors in the high-affinity state (% RH) of 31%. Further, the inhibition of adenylyl cyclase (epinephrine) in assay [2] was 10 % inhibition.

B2: wild-type human alpha-2C adrenergic receptor, P18825 1-462 (receptor)
chain: MASPALAAALAVAAAAGPNASGAGERGSGGVANASGASWGPPRGQYSAGAVAGLAAVVGFLIVFTVVGNVLVVIAVLTSRALRAPQNLFLVSLASADILVATLVMPFSLANELMAYWYFGQVWCGVYLALDVLFCTSSIVHLCAISLDRYWSVTQAVEYNLKRTPRRVKATIVAVWLISAVISFPPLVSLYRQPDGAAYPQCGLNDETWYILSSCIGSFFAPCLIMGLVYARIYRVAKRRTRTLSEKRAPVGPDGASPTTENGLGAAAGAGENGHCAPPPADVEPDESSAAAERRRRRGALRRGGRRRAGAEGGAGGADGQGAGPGAAESGALTASRSPGPGGRLSRASSRSVEFFLSRRRRARSSVCRRKVAQAREKRFTFVLAVVMGVFVLCWFPFFFIYSLYGICREACQVPGPLFKFFFWIGYCNSSLNPVIYTVFNQDFRPSFKHILFRRRRRGFRQ
In assay [1], B2 had a high affinity dissociation constant KH of epinephrine (competition with [3H]yohimbine, no GTP) of 3.7 nM and a percentage of receptors in the high-affinity state (% RH) of 42%. Besides, the inhibition of adenylyl cyclase (epinephrine) in assay [2] worked out at 73 % inhibition.

B3: polymorphic Lys251 human alpha-2A adrenergic receptor, P08913 16-465 (receptor)
chain: MGSLQPDAGNASWNGTEAPGGGARATPYSLQVTLTLVCLAGLLMLLTVFGNVLVIIAVFTSRALKAPQNLFLVSLASADILVATLVIPFSLANEVMGYWYFGKAWCEIYLALDVLFCTSSIVHLCAISLDRYWSITQAIEYNLKRTPRRIKAIIITVWVISAVISFPPLISIEKKGGGGGPQPAEPRCEINDQKWYVISSCIGSFFAPCLIMILVYVRIYQIAKRRTRVPPSRRGPDAVAAPPGGTERRPKGLGPERSAGPGGAEAEPLPTQLNGAPGEPAPAGPRDTDALDLEESSSSDHAERPPGPRRPERGPRGKGKARASQVKPGDSLPRRGPGATGIGTPAAGPGEERVGAAKASRWRGRQNREKRFTFVLAVVIGVFVVCWFPFFFTYTLTAVGCSVPRTLFKFFFWFGYCNSSLNPVIYTIFNHDFRRAFKKILCRGDRKRIV
As to B3, in assay [2], the inhibition of adenylyl cyclase stood at 60 % inhibition and the stimulation of MAP kinase (fold increase over basal) was found to be 57.

B4: wild-type Asn251 human alpha-2A adrenergic receptor, P08913 16-465 (receptor)
chain: MGSLQPDAGNASWNGTEAPGGGARATPYSLQVTLTLVCLAGLLMLLTVFGNVLVIIAVFTSRALKAPQNLFLVSLASADILVATLVIPFSLANEVMGYWYFGKAWCEIYLALDVLFCTSSIVHLCAISLDRYWSITQAIEYNLKRTPRRIKAIIITVWVISAVISFPPLISIEKKGGGGGPQPAEPRCEINDQKWYVISSCIGSFFAPCLIMILVYVRIYQIAKRRTRVPPSRRGPDAVAAPPGGTERRPNGLGPERSAGPGGAEAEPLPTQLNGAPGEPAPAGPRDTDALDLEESSSSDHAERPPGPRRPERGPRGKGKARASQVKPGDSLPRRGPGATGIGTPAAGPGEERVGAAKASRWRGRQNREKRFTFVLAVVIGVFVVCWFPFFFTYTLTAVGCSVPRTLFKFFFWFGYCNSSLNPVIYTIFNHDFRRAFKKILCRGDRKRIV
In assay [2], B4 showed an inhibition of adenylyl cyclase of 46 % inhibition and a stimulation of MAP kinase (fold increase over basal) of 15.
